{"source": "patent US9212226B2", "about": "“Amino acid sequences directed against CXCR4 and other GPCRs and compounds comprising the same” (Ablynx N.V., priority 2008, dated 2015)", "molecules": {"B1": {"name": "238D2: Nanobody (VHH) raised against human CXCR4, SEQ ID NO: 238 (protein)", "VHH": "EVQLVESGGGLVQTGGSLRLSCAASGFTFSSYAMSWVRQAPGKGLEWVSGIKSSGDSTRYAGSVKGRFTISRDNAKNMLYLQMYSLKPEDTAVYYCAKSRVSRTGLYTYDNRGQGTQVTVSS", "modifications": "Nanobody, Nanobody constructs or fragments thereof"}, "B2": {"name": "238D4: Nanobody (VHH) raised against human CXCR4, SEQ ID NO: 239 (protein)", "VHH": "EVQLMESGGGLVQAGGSLRLSCAASGRTFNNYAMGWFRRAPGKEREFVAAITRSGVRSGVSAIYGDSVKDRFTISRDNAKNTLYLQMNSLKPEDTAVYTCAASAIGSGALRRFEYDYSGQGTQVTVSS", "modifications": "Nanobody, Nanobody constructs or fragments thereof"}}, "assay_type_in_all_cases": "cell-based", "key": {"CXCR1": {"biological_target": "T1, CXCR1 (Homo sapiens, UniProt P25024)", "T1 sequence (P25024 1-350)": "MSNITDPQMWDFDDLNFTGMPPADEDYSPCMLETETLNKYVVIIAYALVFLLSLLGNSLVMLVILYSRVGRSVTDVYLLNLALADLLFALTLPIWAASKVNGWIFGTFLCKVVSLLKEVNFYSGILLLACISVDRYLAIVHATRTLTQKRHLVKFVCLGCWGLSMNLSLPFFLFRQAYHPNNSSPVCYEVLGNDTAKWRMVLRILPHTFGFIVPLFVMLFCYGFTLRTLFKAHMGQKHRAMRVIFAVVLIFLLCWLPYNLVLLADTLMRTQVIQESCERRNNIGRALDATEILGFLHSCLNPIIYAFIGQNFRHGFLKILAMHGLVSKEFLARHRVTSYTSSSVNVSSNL", "assay": "CRE/β-galactosidase reporter gene selectivity screen, CXCR1", "settings": "up to 2.5, forskolin 3 μM, agonist at 50-80% Emax", "description": "(§1) Data are shown as means±S.E.M. (n=2-3).\n(§2) HEK293T cells were maintained at 37° C. in a humidified 5% CO2, 95% air atmosphere in Dulbecco's modified Eagle's medium (DMEM) containing 2 mM L-glutamine, 50 IU/ml penicillin, 50 μg/ml streptomycin, and 10% (v/v) fetal calf serum. Jurkat cells were cultured in a humidified 5% CO2, 95% air atmosphere in a 1:1 mixture of Dulbecco's modified Eagle's medium (DMEM) and Ham's F12 medium containing 2 mM L-glutamine, 50 IU/ml penicillin, 50 μg/ml streptomycin, and 10% (v/v) fetal calf serum. […] [^125 I]-Labelling— Radiolabeling of Nanobodies with ^125I was performed using the Iodo-gen method (Pierce, Rockford, Ill.) according to the manufacturer's protocol. ^125I-labeled Nanobodies was separated from free iodine (>99%) using a Sephadex G-25 gel filtration column (Amersham Biosciences, Piscataway, N.J.). […] Competition Binding Assays— Membranes from HEK293T cells transiently expressing CXCR3 or CXCR4 were prepared 48 h after transfection as follows. Cells were washed and scraped from the cell culture dishes with ice-cold PBS containing 1 mm EDTA. The scraped cells were pelleted at 1500×g for 10 min at 4° C. […] The total protein was determined using a Bradford assay (Bio-Rad). […] Plates were counted by liquid scintillation. […] The accumulated inositol phosphates were isolated by anion exchange chromatography and counted by liquid scintillation. […]"}, "CXCR2": {"biological_target": "T2, CXCR2 (Homo sapiens, UniProt P25025)", "T2 sequence (P25025 1-360)": "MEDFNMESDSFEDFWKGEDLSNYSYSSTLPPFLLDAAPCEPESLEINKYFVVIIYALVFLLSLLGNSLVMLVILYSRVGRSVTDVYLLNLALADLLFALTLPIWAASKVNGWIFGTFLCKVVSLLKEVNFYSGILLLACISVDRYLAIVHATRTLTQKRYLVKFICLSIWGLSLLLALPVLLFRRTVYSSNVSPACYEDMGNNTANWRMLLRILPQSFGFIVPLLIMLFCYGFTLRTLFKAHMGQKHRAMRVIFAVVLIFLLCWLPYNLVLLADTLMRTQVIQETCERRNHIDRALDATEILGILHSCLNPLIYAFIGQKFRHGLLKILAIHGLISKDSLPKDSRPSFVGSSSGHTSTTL", "assay": "CRE/β-galactosidase reporter gene selectivity screen, CXCR2", "settings": "up to 2.5, forskolin 3 μM, agonist at 50-80% Emax", "description": "as §1, §2"}, "histamine H4 receptors": {"biological_target": "histamine H4 receptors (Homo sapiens, UniProt Q9H3N8)", "sequence (Q9H3N8 whole entry)": "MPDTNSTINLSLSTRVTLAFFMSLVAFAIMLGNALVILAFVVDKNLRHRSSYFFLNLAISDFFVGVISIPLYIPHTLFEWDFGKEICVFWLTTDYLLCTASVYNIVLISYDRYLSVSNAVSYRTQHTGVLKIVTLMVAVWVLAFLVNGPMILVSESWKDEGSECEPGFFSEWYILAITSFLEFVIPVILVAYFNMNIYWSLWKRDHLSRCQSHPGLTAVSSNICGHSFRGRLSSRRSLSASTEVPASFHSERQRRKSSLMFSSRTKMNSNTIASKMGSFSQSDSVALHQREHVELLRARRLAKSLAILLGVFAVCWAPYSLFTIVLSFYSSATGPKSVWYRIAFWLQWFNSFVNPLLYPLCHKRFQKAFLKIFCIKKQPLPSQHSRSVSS", "assay": "CRE/β-galactosidase reporter gene selectivity screen, histamine H4 receptor", "settings": "up to 2.5, forskolin 3 μM, agonist at 50-80% Emax"}, "β2-adrenoceptors": {"biological_target": "T3, β2-adrenoceptors (Homo sapiens, UniProt P07550)", "T3 construct": "(or mock for the investigation of endogenously expressed β2 adrenoceptors); endogenous in cells; host or cells: HEK293T cells (mock-transfected)", "assay": "CRE/β-galactosidase reporter gene selectivity screen, endogenous β2-adrenoceptors of HEK293T cells", "settings": "Nanobody 2.5 μM, salbutamol 100 nM, no forskolin", "description": "as §1, §2"}, "CXCR4": {"biological_target": "CXCR4 (Homo sapiens, UniProt P61073)", "sequence (P61073 whole entry)": "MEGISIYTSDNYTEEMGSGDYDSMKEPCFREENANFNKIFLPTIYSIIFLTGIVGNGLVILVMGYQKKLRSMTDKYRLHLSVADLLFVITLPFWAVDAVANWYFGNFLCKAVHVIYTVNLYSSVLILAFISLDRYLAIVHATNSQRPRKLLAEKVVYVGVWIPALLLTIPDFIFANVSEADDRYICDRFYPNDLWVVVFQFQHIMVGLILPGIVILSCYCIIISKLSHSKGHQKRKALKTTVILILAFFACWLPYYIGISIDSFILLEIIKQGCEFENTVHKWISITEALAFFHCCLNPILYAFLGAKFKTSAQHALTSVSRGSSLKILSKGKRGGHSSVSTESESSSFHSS", "assay": "Inositol phosphate accumulation assay in HEK293T cells expressing CXCR4 and Gαqi5", "settings": "for inhibition of the CXCL12-induced accumulation of inositol phosphates: CXCL12 30 nM; for agonist activity, inositol phosphate accumulation: up to a concentration of 100 nM", "description": "HEK293T cells were maintained at 37° C. in a humidified 5% CO2, 95% air atmosphere in Dulbecco's modified Eagle's medium (DMEM) containing 2 mM L-glutamine, 50 IU/ml penicillin, 50 μg/ml streptomycin, and 10% (v/v) fetal calf serum. Jurkat cells were cultured in a humidified 5% CO2, 95% air atmosphere in a 1:1 mixture of Dulbecco's modified Eagle's medium (DMEM) and Ham's F12 medium containing 2 mM L-glutamine, 50 IU/ml penicillin, 50 μg/ml streptomycin, and 10% (v/v) fetal calf serum. […] [^125 I]-Labelling— Radiolabeling of Nanobodies with ^125I was performed using the Iodo-gen method (Pierce, Rockford, Ill.) according to the manufacturer's protocol. ^125I-labeled Nanobodies was separated from free iodine (>99%) using a Sephadex G-25 gel filtration column (Amersham Biosciences, Piscataway, N.J.). […] Competition Binding Assays— Membranes from HEK293T cells transiently expressing CXCR3 or CXCR4 were prepared 48 h after transfection as follows. Cells were washed and scraped from the cell culture dishes with ice-cold PBS containing 1 mm EDTA. The scraped cells were pelleted at 1500×g for 10 min at 4° C. The pellet was washed and then resuspended in ice-cold membrane buffer (15 mM Tris, pH 7.5, 1 mM EGTA, 0.3 mM EDTA, and 2 mM MgCl2). The cell suspension was homogenized by 10 strokes at 1200 rpm using a Teflon-glass homogenizer and rotor and further subjected to three freeze-thaw cycles using liquid nitrogen. Membranes were separated by centrifugation at 40,000 g for 25 min at 4° C. The membrane pellet was washed and resuspended in ice-cold Tris-sucrose buffer (20 mM Tris, pH 7.4, and 250 mM sucrose) and frozen in liquid nitrogen. The total protein was determined using a Bradford assay (Bio-Rad). Periplasmas (1:10) or ligands were pre-incubated with membranes in binding buffer (50 mM HEPES (pH 7.4), 1 mM CaCl2, 5 mM MgCl2, 100 mM NaCl, 0.5% bovine serum albumin) supplemented with 0.5% BSA for 1 h at 22° C. before the addition of [^125I]-CXCL12 (40 pM) or [^125I]-238D2 (3 nM) or [^125I]-238D4 (3 nM) for additional 2 h at 22° C. […] Membranes were then harvested over polyethylenimine (0.5%)-treated Whatman GF/C filter plates and washed three times with ice cold binding buffer containing 500 mM NaCl. Plates were counted by liquid scintillation. Inositol Phosphate Accumulation Assay— 24 hours post transfection with pcDNA3.1-CXCR4 and pcDNA1-HA-mG {alpha} qi5 (see Verzijl et al, 2008 supra), 250.000 cells were seeded into 24-wells plates and labelled overnight using inositol-free minimal essential medium supplemented with 1 μCi myo-[2-^3H]-inositol. The next day, the cells were washed once to remove not incorporated myo-[2-^3H]-inositol. […] In agonist experiments, the cells were directly stimulated with test compounds and LiCl (10 mM) in assay buffer for 2 h at 37° C. The stimulation was stopped by aspirating the stimulation medium and adding ice-cold 10 mM formic acid. The accumulated inositol phosphates were isolated by anion exchange chromatography and counted by liquid scintillation. CRE Reporter Gene Assay— HEK239T cells were transfected with pCRE/β-galactosidase (Chen W, Shields T S, Stork P J S, Cone R D (1995) Anal Biochem 226:349-354) and plasmids (pcDEF3 or pcDNA3.1) encoding the indicated receptors. 40,000 transfected cells per well were seeded into 96 well plates and grown in DMEM supplemented with 10% fetal calf serum. The medium was replaced 32 h after transfection by serum-free DMEM supplemented with 0.5% bovine serum albumin and ligands as indicated. Following 16 h of ligand incubation, the medium was removed, the cells were lysed in 100 μl of assay buffer (100 mM sodium phosphate buffer at pH 8.0, 4 mM 2-nitrophenol-β-D-pyranoside, 0.5% Triton X-100, 2 mM MgSO4, 0.1 mM MnCl2, and 40 mM β-mercaptoethanol) and incubated at room temperature. […]"}, "[1]": {"settings": "HEK293T-CXCR4-Gαqi5/30 nM CXCL12, mean ± S.E.M."}}, "note": "Entries after “also recorded” stand apart in the source; their conditions may differ.", "data": [{"molecule": "B1", "values": [{"measurement": "effect on agonist-induced response at CXCR1", "setting": "CXCR1", "result": "do not act as agonists or antagonists; also recorded: do not alter"}, {"measurement": "effect on agonist-induced response at CXCR2", "setting": "CXCR2", "result": "do not act as agonists or antagonists; also recorded: do not alter"}, {"measurement": "effect on agonist-induced response at histamine H4 receptors", "setting": "histamine H4 receptors", "result": "do not act as agonists or antagonists; also recorded: do not alter"}, {"measurement": "effect on activation of endogenous β2-adrenoceptors by salbutamol", "setting": "β2-adrenoceptors", "result": "do not act as agonists or antagonists; also recorded: did not inhibit"}, {"measurement": "inhibition of the CXCL12-induced accumulation of inositol phosphates", "setting": "CXCR4", "result": "fully inhibited"}, {"measurement": "Imax (%), IP accumulation", "setting": "CXCR4; [1]", "result": "86 ± 12", "unit": "%"}, {"measurement": "pKi or pIC50, IP accumulation", "setting": "CXCR4; [1]", "result": "8.51 ± 0.11"}, {"measurement": "agonist activity, inositol phosphate accumulation", "setting": "CXCR4", "result": "no intrinsic activity; also recorded: No agonist activity"}]}, {"molecule": "B2", "values": [{"measurement": "effect on agonist-induced response at CXCR1", "setting": "CXCR1", "result": "do not act as agonists or antagonists; also recorded: do not alter"}, {"measurement": "effect on agonist-induced response at CXCR2", "setting": "CXCR2", "result": "do not act as agonists or antagonists; also recorded: do not alter"}, {"measurement": "effect on agonist-induced response at histamine H4 receptors", "setting": "histamine H4 receptors", "result": "do not act as agonists or antagonists; also recorded: do not alter"}, {"measurement": "effect on activation of endogenous β2-adrenoceptors by salbutamol", "setting": "β2-adrenoceptors", "result": "do not act as agonists or antagonists; also recorded: did not inhibit"}, {"measurement": "inhibition of the CXCL12-induced accumulation of inositol phosphates", "setting": "CXCR4", "result": "fully inhibited"}, {"measurement": "Imax (%), IP accumulation", "setting": "CXCR4; [1]", "result": "90 ± 5", "unit": "%"}, {"measurement": "agonist activity, inositol phosphate accumulation", "setting": "CXCR4", "result": "no intrinsic activity; also recorded: No agonist activity"}]}]}
